Measurements reported in paper PMC6953194.

How the values were obtained:
Experiment in all cases: SPR
[1] = target: VRC01 co‐expressed with human β1,4‐galactosyltransferase in the ΔXT/FT plant line (VRC01Gal) (human)
[2] = target: VRC01 expressed in the ΔXT/FT N. benthamiana plant line (VRC01ΔXF) (human)
[3] = target: VRC01 antibody derived from HEK cells (VRC01HEK) (human)
[4] = target: VRC01 expressed transiently in WT N. benthamiana (VRC01WT) (human)
Sequence of VRC01 expressed transiently in WT N. benthamiana (VRC01WT) (human) (light, as listed by the source, chain 2 of 2, other chains not shown): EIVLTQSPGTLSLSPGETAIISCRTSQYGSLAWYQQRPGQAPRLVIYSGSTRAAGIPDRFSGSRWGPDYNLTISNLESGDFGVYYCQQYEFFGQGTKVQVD

Sequence of VRC01 antibody derived from HEK cells (VRC01HEK) (human) (light, as listed by the source, chain 2 of 2, other chains not shown): as above
Sequence of VRC01 expressed in the ΔXT/FT N. benthamiana plant line (VRC01ΔXF) (human) (light, as listed by the source, chain 2 of 2, other chains not shown): as above
Sequence of VRC01 co‐expressed with human β1,4‐galactosyltransferase in the ΔXT/FT plant line (VRC01Gal) (human) (light, as listed by the source, chain 2 of 2, other chains not shown): as above

- Kd [1]: 1500 nM
- Kd [2]: 780 nM
- Kd [3]: 937 nM
- Kd [4]: > 7000 nM
B1: recombinant human FcγRIIa ectodomain, polymorphic variant R131 (receptor)
chain: QAAAPPKAVLKLEPPWINVLQEDSVTLTCQGARSPESDSIQWFHNGNLIPTHTQPSYRFKANNNDSGEYTCQTGQTSLSDPVHLTVLSEWLVLQTPHLEFQEGETIMLRCHSWKDKPLVKVTFFQNGKSQKFSRLDPTFSIPQANHSHSGDYHCTGNIGYTLFSSKPVTITVQVPSMGSSSPMG
modifications: not checked
